Source: publication PMC11984302

Columns and labels:
Conditions in all cases: SICS: thrombin in 1 M KCl (or 150 mM KCl), pH 7.5, 30 min incubation, 300 mV; gel: 16% Tris-Glycine; temperature not stated
[1] = molecular target: T1, thrombin (human plasma, Sigma-Aldrich) (Homo sapiens) (UniProt P00734+P00734); assay: single-molecule SICS nanopore
[2] = molecular target: T1, thrombin (human plasma, Sigma-Aldrich) (Homo sapiens); assay: free translocation nanopore
[3] = molecular target: T1, thrombin (human plasma, Sigma-Aldrich) (Homo sapiens); assay: single-molecule SICS nanopore; remark: listed apart in the source

Sequence: TCAGCTTGCGGAGATGCGATGGTTGGTGTGGTTGGATCGAGAAAAAGGTACGCCC / GGGCGTACCTTTTTCTCGATATCGCATCTCCGCAAGCTGA [extended TBA 1 in single-gap DNA carrier]
- binding signal (% carriers with thrombin bound) [1]: 52
- binding signal (% events with thrombin bound) [2]: 14.1
- binding signal (% carriers with thrombin bound) [3]: > 30
